US20060036083

Test system: ADP-ribosylated HNP-1
Sequence (chain, as listed by the source): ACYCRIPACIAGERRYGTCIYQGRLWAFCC

## recombinant human ADP-ribosylarginine hydrolase
  Release of ADP-ribose from ADP-ribosylated HNP-1 (MALDI-MS): released a molecule of 3,444 daltons consistent with HNP-1 (calculated 3, 443 daltons)
